Measured values as given in the Human Domainome abundance scans (Beltran et al. 2025).
± gives the uncertainty stated by the source.

B1: Homeobox protein cut-like 1, residues 941 to 1008; numbered along this chain, P39880 (parent)
chain: QEVDTIELTRQVKEKLAKNGICQRIFGEKVLGLSQGSVSDMLSRPKPWSKLTQKGREPFIRMQLWLNG
B2: Protein maelstrom homolog, residues 3 to 71; numbered along this chain, Q96JY0 (parent)
chain: NRKASRNAYYFFVQEKIPELRRRGLPVARVADAIPYCSSDWALLREEEKEKYAEMAREWRAAQGKDPGP

Variants of: B1
Assay: abundance fitness (aPCA) (normalised: wild type 0, dead -1); higher = more abundant; growth selection in yeast, the domain comes from the species named
Settings: Homo sapiens

Abundance fitness, by site and new letter:
Q63: A -0.268 ± 0.051, T -0.184 ± 0.065, I -0.2 ± 0.099, H 0.041 ± 0.1, V -0.262 ± 0.056, W -0.032 ± 0.077, P -0.724 ± 0.091, R 0.012 ± 0.054, M -0.124 ± 0.069, F -0.258 ± 0.099, S -0.219 ± 0.055, C -0.441 ± 0.1, N -0.317 ± 0.11, L -0.424 ± 0.052, G -0.098 ± 0.056, Y -0.069 ± 0.087, D -0.389 ± 0.091, E -0.272 ± 0.061, K 0.017 ± 0.072
L64: N 0.065 ± 0.096, Y 0.005 ± 0.1, G -0.074 ± 0.06, M -0.049 ± 0.067, K 0.158 ± 0.064, I -0.195 ± 0.12, F -0.326 ± 0.099, Q 0.144 ± 0.082, T 0.015 ± 0.061, P -0.562 ± 0.074, R 0.103 ± 0.055, S 0.068 ± 0.058, A 0.087 ± 0.06, C -0.181 ± 0.1, H -0.137 ± 0.12, E 0.185 ± 0.057, V -0.135 ± 0.049
N67: V -0.191 ± 0.1, D -0.21 ± 0.11, C -0.193 ± 0.092, P -0.758 ± 0.12, T -0.041 ± 0.07, A -0.03 ± 0.085, K 0.045 ± 0.068, I -0.326 ± 0.095, L -0.128 ± 0.063, Q -0.088 ± 0.1, R -0.016 ± 0.06, S -0.031 ± 0.061, H -0.128 ± 0.092, E 0.072 ± 0.12, Y -0.197 ± 0.085, G -0.04 ± 0.098, M -0.186 ± 0.12
M62: G -0.591 ± 0.066, W -0.335 ± 0.075, Y -0.959 ± 0.13, T -0.274 ± 0.082, P -0.93 ± 0.11, N -1.08 ± 0.22, L -0.227 ± 0.058, I -0.346 ± 0.12, S -0.619 ± 0.068, K -0.793 ± 0.14, A -0.141 ± 0.065, V -0.388 ± 0.06, R -0.855 ± 0.077, F 0 ± 0.086, D -0.86 ± 0.11, C -0.226 ± 0.081, H -1.33 ± 0.4
G68: V -0.565 ± 0.086, L -0.343 ± 0.12, S -0.229 ± 0.072, I -0.662 ± 0.16, F -0.265 ± 0.19, T -0.402 ± 0.15, R -0.14 ± 0.066, C -0.258 ± 0.08, K -0.091 ± 0.11, H -0.455 ± 0.14, Q -0.212 ± 0.23, A -0.046 ± 0.085, P -0.576 ± 0.14, D 0.013 ± 0.095, W -0.624 ± 0.091
W65: G -1.01 ± 0.1, P -1.22 ± 0.15, A -0.666 ± 0.064, N -1.45 ± 0.3, F -0.326 ± 0.095, H -0.864 ± 0.28, T -1.31 ± 0.17, E -0.968 ± 0.12, Y -0.309 ± 0.11, M -0.744 ± 0.08, R -0.76 ± 0.081, D -0.994 ± 0.15, Q -1.24 ± 0.21, I -1.3 ± 0.21, K -0.715 ± 0.088, C -0.718 ± 0.12
L66: E -0.909 ± 0.15, Q -1.17 ± 0.15, I -0.166 ± 0.083, T -0.8 ± 0.075, C -0.499 ± 0.13, K -0.63 ± 0.084, Y -0.762 ± 0.091, M -0.244 ± 0.073, G -0.884 ± 0.09, D -1.21 ± 0.33, P -0.959 ± 0.091, V -0.223 ± 0.061, A -0.62 ± 0.089, N -0.568 ± 0.11, W -0.35 ± 0.068, S -0.82 ± 0.072
R61: V -0.487 ± 0.066, H -0.393 ± 0.094, S -0.386 ± 0.065, M -0.308 ± 0.063, Y -0.365 ± 0.11, G -0.582 ± 0.089, Q -0.131 ± 0.085, T -0.131 ± 0.068, P -0.788 ± 0.096, W -0.619 ± 0.096, I -0.706 ± 0.11, L -0.174 ± 0.045, N -0.041 ± 0.11

Variants of: B2
Assay: as above
Settings: Homo sapiens

Abundance fitness, by site and new letter:
S5: D 0.12 ± 0.17, C -0.655 ± 0.34, A 0.013 ± 0.12
K3: N -0.001 ± 0.19
A4: T 0.049 ± 0.17, W -0.262 ± 0.096, L 0.048 ± 0.08, H -1.04 ± 0.39, S 0 ± 0.092, K -0.095 ± 0.13, C -0.395 ± 0.15, V -0.001 ± 0.085, N -0.371 ± 0.32, P -0.246 ± 0.072, R -0.09 ± 0.057, G 0.032 ± 0.056, M -0.011 ± 0.13, D -0.462 ± 0.23, E 0.159 ± 0.11
R2: A -0.407 ± 0.085, E 0.124 ± 0.078, V -0.288 ± 0.071, K 0.045 ± 0.09, G 0.021 ± 0.054, M 0.093 ± 0.067, P 0.06 ± 0.085, F -0.095 ± 0.16, S 0.091 ± 0.032, H 0.058 ± 0.1, L -0.013 ± 0.045, C 0.123 ± 0.09, N -0.2 ± 0.12, T 0.126 ± 0.066, I 0.162 ± 0.075, D 0.122 ± 0.1, Y 0.078 ± 0.12, W -0.141 ± 0.058
